Common to all, as to assay: purified protein
Substrate in data set [1]: O=C(O)[C@@H]1C[C@@H](O)CN1
The following applies: 4HypE reaction (start from t4Hyp as in Figure 1), 50 mM Na-phosphate pH 8.0, 1 mM DTT, 25°C.

Substrate in data set [2]: O=C(O)C1=NCCC1
Type of data set: biochemical, Bacillus cereus. The settings on record: 0.16 mM NADPH, 50 mM Tris-HCl pH 7.6, 25°C.

Substrate in data set [3]: O=C(O)C1=NCCC1
Type of data set: biochemical, Pseudomonas aeruginosa. The settings on record: 0.16 mM NADPH, 50 mM Tris-HCl pH 7.6, 25°C.

Substrate in data set [4]: O=C(O)C1=NCCC1
Type of data set: biochemical, Agrobacterium fabrum. The following applies: 0.16 mM NADPH, 50 mM Tris-HCl pH 7.6, 25°C.

B1: Avi_0518 (B9JQV3) (Allorhizobium ampelinum S4) (protein)
chain: MRWKRMMQLLDVHCEGEIGKVAIGGVPKIPGDTVADQLHWLNTDPKGRELRHFLVLEPRGAPIGSVNLLLPAKDSRADAAFIILQPDQAHASSGSNSICVTTALLESGMIEMQEPETVVMLETAAGLVKAVAQCRDGHCDSVTLTMVPSFVHELDAQIATESWGEIRFDLAYGGVFYALVDVRQLGLTIEPGNARRLVEAGMLLKGEINQRIQVVHPDIPAISGVAYVMFRDEDPDGAVRTCTTMWPGRVDRSPCGTGNSANLATLHARGRVKPGDSFLSRSIIGSQFTVGLQGLTTVAGRSAVIPTITGRGFTYGIHQVALDAFDPLGGGFVLTDVWGAAAETIKI
Consider B1, for which, in data set [1], the Michaelis-Menten constant (Km) was 5600 ± 500 µM.

B2: BC_0906 (Q81HB0) (Bacillus cereus ATCC 14579) (protein)
chain: MLVISANEQRNLVNMNEVIEYAALALKEFSAERTITPIRGSLPFANEQNTALIMPSVAEGLEALGVKIVTVVPQNKQIGKKTINGIVMLSDFQAGEPLALLEGSYLTMIRTGALSGVATKYLARHNAKTLCIIGTGEQAKGIAEAIFAVRDIEKVILYNRTEEKAYAFAQYIQEKFGKPAYVYKDPNEAVREADIIVTTTNATTPVFSEILQKGVHVNAVGSFRPSMQELPSHAIAKANKVVVESKEAALDETGDLQVPIKEGLFKANAIHAELGQIISGEKAGRENDEEITIFKSVGLAVVDIIVAKYLYERALEQGVGNKIEF
B2: in data set [2], the Km is 470 ± 100 µM and the kcat was 15 ± 1 s⁻¹.

B3: PA1252 (Q9I492) (Pseudomonas aeruginosa PAO1) (protein)
chain: MIRMTLDEVRELAVRILRRHAFSEAHVQAVADTLVAGERDECASHGIWRLLGCIATLKAGKVSADAEPELHDIAPGLLRVDAHGGFSQCAFRLGLPHLLEKARSQGIAAMAVNRCVHFSALWVEVEALTEAGLVALATTPSHAWVAPAGGRKPIFGTNPIAFGWPRPDGPPFVFDFATSAVARGEIQLHERAGKPIPLGWGVDEQGEPTTDASAALRGAMLTFGGHKGSALAAMVELLAGPLIGDLTSAESLAYDEGSRSSPYGGELLIAIDPRRMLGASAEEHLARAETLFEGIVEQGARLPSQRRFEARERSARDGVTIPEALHRELLALLE
On to B3, for which, in data set [3], the Km came out at 410 ± 60 µM and the kcat stood at 1.6 ± 0.05 s⁻¹.

B4: Atu4676 (Q7CVK1) (Agrobacterium fabrum str. C58) (protein)
chain: MSDTTTLTIEALFQRVESIFLRAGLNAVQSGALARVITAGERDACKSHGIYRIEGALRTVKAAKVKPDAIPEVAEDDGTAIVKVNAMGGFANPAFELGLPALAERAKRLGLAALVINDCTHFSALWPEVEGLTSNGLAGLVMCPSYSTVAPTGGTKPLLGTNPFAFGWPRKDTSPYVFDFATSVAARGEIELHRRARKSLPEGWAVDADGNPTTDPEAALAGAMLPFGGHKGSAIGTMIELLAGIMIGDLTSPEVLDYLGTTTLAPFHGELIVAFSPEAFAKGRPGDPFQRAEVLFEAIIGQGARLPSGRRFAARAKSESEGITLTAAEMAGLDRLLEKGLDAVS
In the case of B4, in data set [4], the Km is 330 ± 40 µM and the kcat came to 32 ± 1 s⁻¹.

For orientation: Km means the concentration of substrate that gives half-maximal velocity. The kcat is the maximal rate divided by the concentration of active sites.

The values above are taken from paper PMC4113996, “Prediction and characterization of enzymatic activities guided by sequence similarity and genome neighborhood networks” (eLife, 2014).
